Experimental data reported in publication PMC7040040 (2020).
Non-standard residues stand in square brackets, D forms with d. No end group written: not given here. pGlu = O=C1CC[C@@H](C(=O)O)N1

How the values were obtained:
[1] = target: T1, PBD-C06 (final humanized, de-immunized antibody with the complement mutation K322A) (human); experiment: SPR
[2] = target: T1, PBD-C06 (final humanized, de-immunized …); experiment: SPR; remark: listed apart in the source

T1 sequence (chain, as listed by the source K322A, chain 1 of 2): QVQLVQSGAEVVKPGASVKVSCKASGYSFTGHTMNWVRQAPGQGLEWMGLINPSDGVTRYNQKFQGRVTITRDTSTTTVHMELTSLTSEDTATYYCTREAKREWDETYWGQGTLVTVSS
T1 sequence (chain, as listed by the source K322A, chain 2 of 2): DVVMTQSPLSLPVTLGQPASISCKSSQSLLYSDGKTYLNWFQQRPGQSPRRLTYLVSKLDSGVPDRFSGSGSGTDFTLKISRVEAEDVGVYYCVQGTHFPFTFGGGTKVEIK

Kd [1] [nM]	koff [2] [s⁻¹]	Binder
> 50000		FRHDSGYEVHHQKLV [Aβ(4–18) monomer]
7.86	0.00393	[pGlu]FRHDSGYEVHHQKLV [pE3-Aβ(3–18) monomer]
